The target of the test is rat GluA2igQ with a His8/Myc tag between residues 22 and 23 (rat). The experiment in a line: AFM imaging of receptor-antibody complexes; receptors isolated by immunoaffinity chromatography from the total cellular pool, incubated with subunit- or tag-specific antibodies, adsorbed to mica at 0.04 nM, imaged in air in tapping mode; volumes of decorated particles and angles between two bound antibodies.

Usually stoichiometry N stands for the number of molecules, sites or subunits per partner or assembly.

As for “rat GluA2igQ with a His8/Myc tag between residues 22 and 23 (receptor)”, the stoichiometry N stood at 4.

For the origin of these results see article PMC3724652.
